This note sets out measurements from paper PMC5739758, “Human oncoprotein Musashi-2 N-terminal RNA recognition motif backbone assignment and identification of RNA-binding pocket”.

One may read the Kd as the free concentration of one partner at which half of the binding sites on the other are occupied at equilibrium, for simple one-to-one binding.

Series [1] concerns the target T1, MSI2-RRM1 (human, UniProt Q96DH6 21-111). Description: TR-FRET; 2 nM RNA; TR-FRET at room temperature (FP per earlier publication; binding buffers not given; protein stored in 50 mM Tris-HCl pH 8.0, 500 mM NaCl); NMR 20 mM MES pH 6.0, 150 mM NaCl, 5% D2O, 298 K. To be noted: protein: recombinant; tags: N-terminal His6 + TEV site (residues -3 to 20); label: 3' biotin. Background: Time-resolved FRET reads energy transfer from a long-lived donor to a nearby acceptor.

Series [2] concerns the target T1, MSI2-RRM1. Description: NMR; 1H-15N HSQC titration, 1:1, slow exchange; TR-FRET at room temperature (FP per earlier publication; binding buffers not given; protein stored in 50 mM Tris-HCl pH 8.0, 500 mM NaCl); NMR 20 mM MES pH 6.0, 150 mM NaCl, 5% D2O, 298 K. The following applies: protein: recombinant; tags: N-terminal His6 + TEV site (residues -3 to 20).
In series [3] the target is T1, MSI2-RRM1. The experiment in a line: TR-FRET; 2 nM RNA; no detectable binding in nM range; TR-FRET at room temperature (FP per earlier publication; binding buffers not given; protein stored in 50 mM Tris-HCl pH 8.0, 500 mM NaCl); NMR 20 mM MES pH 6.0, 150 mM NaCl, 5% D2O, 298 K. The following applies: protein: recombinant; tags: N-terminal His6 + TEV site (residues -3 to 20); label: 3' biotin.

T1 sequence (Q96DH6 21-111): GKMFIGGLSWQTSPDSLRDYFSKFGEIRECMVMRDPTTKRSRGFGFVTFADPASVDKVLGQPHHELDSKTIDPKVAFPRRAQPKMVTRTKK

Regarding UAGGUAGUAGUUUUA (ssRNA) [NumbBiotin], the Kd with MSI2-RRM1 [1] was determined as 2.07 nM. For GUAGU (ssRNA) [Numb5], the binding result in the series with MSI2-RRM1 [2] is reported as “binds”. Take UAGCAUCAUCAUUUA (ssRNA) [Numb-mutBiotin]: the binding result with MSI2-RRM1 [3] is on record as “no binding”.
